# According to US20080085859A1, “Drug Promoting Ceramide Transport, Base Sequence for Producing the Drug, Method of Measuring Activity of Promoting Ceramide Release and Method of Measuring Activity of Promoting Intermembrane Ceramide Transfer” (JAPAN SCIENCE AND TECHNOLOGY AGENCY, priority 2003, published 2008):
# B1: hCERT protein: human CERT protein having an amino acid sequence of SEQ ID NO:1 (protein)
# chain: MSDNQSWNSSGSEEDPETESGPPVERCGVLSKWTNYIHGWQDRWVVLKNNALSYYKSEDETEYGCRGSICLSKAVITPHDFDECRFDISVNDSVWYLRAQDPDHRQQWIDAIEQHKTESGYGSESSLRRHGSMVSLVSGASGYSATSTSSFKKGHSLREKLAEMETFRDILCRQVDTLQKYFDACADAVSKDELQRDKVVEDDEDDFPTTRSDGDFLHSTNGNKEKLFPHVTPKGINGIDFKGEAITFKATTAGILATLSHCIELMVKREDSWQKRLDKETEKKRRTEEAYKNAMTELKKKSHFGGPDYEEGPNSLINEEEFFDAVEAALDRQDKIEEQSQSEKVRLHWPTSLPSGDAFSSVGTHRFVQKVEEMVQNHMTYSLQDVGGDANWQLVVEEGEMKVYRREVEENGIVLDPLKATHAVKGVTGHEVCNYFWNVDVRNDWETTIENFHVVETLADNAIIIYQTHKRVWPASQRDVLYLSVIRKIPALTENDPETWIVCNFSVDHDSAPLNNRCVRAKINVAMICQTLVSPPEGNQEISRDNILCKITYVANVNPGGWAPASVLRAVAKREYPKFLKRFTSYVQEKTAGKPILF
# modifications: HeLa cell
# Columns and labels:
# [1] = ceramide release promotion activity from membrane; assay type: biochemical; settings: 14C-ceramide in phosphatidylcholine/phosphatidylethanolamine membrane, 37° C. 30 minutes, 14C in supernatant; FIGS. 14, 16
# Experimental: Hereinafter, the standard method will be described in detail, however, even if the described conditions are changed, a method of detecting ceramide release promotion activity having means for separating releasing ceramide by a centrifugation principally belongs to the present invention. The lipid membrane containing ceramide was prepared so that it contains 12.5 nCi (225 pmol) per sample of [palmitoyl-1-^14C]N-palmitoyl-D-ethyro-sphigosine (hereinafter, may be referred to as ^14C-ceramide) on the basis of the mixed lipid consisting of phosphatidylcholine and phosphatidylethanolamine derived from egg yolk at the ratio of 4:1 and its concentration becomes 2.5 mg/mL. This lipid membrane is required at the rate of 20 μL per one sample of the activity measurement. […]
# hCERT protein or its recombinant protein described above as a protein sample to be targeted (under the standard conditions, the amount of protein corresponding to 450 picomoles, which is 2-fold molar equivalent amount of ceramide contained in the donating membrane was used) were messed up to 30 μL using the buffer 2 [50 mM Hepes-NaOH buffer (pH7.4) to which 100 mM NaCl and 0.5 mM EDTA have been added]. […] The activity for promoting ceramide release with hCERT was calculated by measuring the radioactive activity of ^14C in the supernatant fraction using a liquid scintillation counter. […]
# [2] = activity for promoting ceramide intermembrane transfer (donating/receiving membrane, castor seed lectin); assay type: biochemical
# Text: Subsequently, as described in detail below, whether or not hCERT protein and recombinant protein promotes the transfer between ceramide lipid membrane was considered, the purified hCERT protein and its recombinant protein were used in this assay were used. The present method was constructed on the basis of the principle of method of measuring the activity for promoting the intermembrane transfer of phosphatidylinositol by phosphatidylinositol transfer protein already reported by Kasper et al (Biochim. Biophys. Acta 664, 22-32, 1981) so that it becomes a new method of measuring the activity for promoting the ceramide intermembrane transfer. For the purpose of measuring the activity for promoting the intermembrane transfer, a donating membrane in which radioactive ceramide has been contained and a receiving membrane not containing ceramide were prepared. For the purpose of separating the lipid membrane, lactocylceramide was contained in the donating membrane. After the donating membrane and receiving membrane have been incubated with the protein sample to be targeted, castor seed lectin was added. Ceramide intermembrane-transferred can be quantified by measuring the radioactive activity of receptor membrane which has not been precipitated by a low speed centrifugation. […]
molecule,measurement,setting,value
B1,activity for promoting ceramide release,[1],detected depending on the amount of hCERT and the length of incubating time
same,activity for promoting ceramide intermembrane transfer,"[2]; 37° C., 14C of supernatant and donating membrane, FIGS. 17, 18","detected depending on the amount of hCERT, the length of incubation time and incubation temperature"
same,ceramide transferred to the receiving membrane vesicle,[2]; for 10 minutes,~50%
